Columns and labels:
[1] = Luminescence of 9B8 opt+K33N derived variants in E. coli; assay type: biochemical
Method: Luminescence generated from the lysates was measured using the novel PBI-3939 and native coelenterazine as substrates. The relative specificity of the variants for PBI-3939 and native coelenterazine was calculated as described previously.
A new OgLuc library was created using 9B8opt+K33N as a starting template. The random library was created using DIVERSIFY® PCR Random Mutagenesis Kit (ClonTech; Catalog #630703). Condition 5 (as listed in the user manual) was used to generate additional variants, and the average mutation rate was calculated to be 2.6 mutations per gene by compiling sequence data from 83 randomly selected clones. This PCR library was cloned into the pF4Ag-based, non-fusion vector background described previously and the sandwich background, i.e., Id-OgLuc-HT7 (described in Example 45). Variants in the pF4Ag-base non-fusion vector background are designated with (NF). Variants in the sandwich vector background are designated with (F). In order to clone the PCR product into both vectors, an amino acid, i.e., a glycine, was appended to the variant sequence in pF4Ag, generating a new position 170 in the OgLuc variant (“170G”). The 170G is present in the sandwich construct, but in this case is considered part of the linker between OgLuc and HT7. For each library, 4,400 E. coli clones were assayed as described previously with the following exceptions. […] The assay buffer contained 100 mM MES pH 6.0 instead of HEPES, and 35 mM thiourea. The assay volumes were as follows: 10 μL cells, 40 μL, lysis buffer, and 50 μL, assay buffer.
E. coli lysates containing the variants were prepared and analyzed as described previously. Luminescence generated from the lysates was measured using the novel PBI-3939 and native coelenterazine as substrates. The luminescence of the variants was normalized to the luminescence generated by 9B8 opt (Table 12). The relative specificity of the variants for PBI-3939 and native coelenterazine was calculated by dividing the luminescence of the variants using PBI-3939 as a substrate with the luminescence of the variants using native coelenterazine as a substrate (Table 12).

HEK293 cells [2] = assay: Luminescence of OgLuc variants expressed in HEK293 cells; assay type: cell-based, human
Method: (§1) The PCR library in the pF4Ag-based non-fusion background was screened for additional variants with increased luminescence compared to 9B8 opt+K33N+170G (SEQ ID NOs: 68 and 69). Selected variants were then assayed in HEK293 and NIH3T3 cells. For each cell type, 15,000 cells were plated and grown overnight at 37° C. The next day, the cells were transfected as described in Example 25 with 10 ng pGL4.13 (Promega Corp.) as a transfection control and 100 ng of the OgLuc test DNA. The media was removed, and the cells were lysed with 100 μL of lysis buffer as described in Example 25 except the lysis buffer contained 100 mM MES pH 6.0 instead of HEPES, and luminescence measured using a GLOMAX® Luminometer.
(§2) Based on the above data, further combination variants were designed and generated (see Table 10) in the context of the pF4Ag-based non-fusion vector background without the 170G. The variants were analyzed in E. coli, HEK293 and NIH3T3 cells as described above and compared to 9B8 opt+K33N. The variants were also examined for luminescence with native coelenterazine.
(§3) The brightness of the variants expressed in HEK293 and NIH3T3 cells was measured as described previously. The luminescence of the variants was normalized to the luminescence generated by 9B8 opt (Table 27).

NIH3T3 cells [3] = assay: Luminescence of OgLuc variants expressed in NIH3T3 cells; assay type: cell-based
Method: as §1, §2, §3

[4] = Enzyme kinetics of OgLuc variants in E. coli lysates; assay type: biochemical; details: PBI-3939, E. coli lysates
Method: Using methods known in the art, enzyme kinetic assays measuring luminescence were performed with the lysates of E. coli containing IV and the IV variants 15C1, 9B8, 9F6, and 9A3. […] Two fold serial dilutions of PBI-3939 in the assay buffer described previously in Example 26 were assayed with the diluted lysates. […] Variants 9B8 and 9F6 had higher Km values compared to IV while Km values for the other variants were unchanged.
Luminescence was measured on a TECAN® INFINITE® F500 luminometer.
The enzyme kinetics values were determined for the OgLuc variants as described previously, except luminescence was measured using a GLOMAX® luminometer. Three replicates were used for each variant.

[5] = Thermal stability of OgLuc variants at 60° C.; assay type: physicochemical; details: 60° C., assay buffer MES pH 6.0
Method: Aliquots were removed at different time-points and placed on dry ice to freeze the samples. […] Luminescence was measured on a GLOMAX® luminometer (Promega Corp.).
The thermal stability of the variants at 60° C. was examined as described above, except the assay buffer contained 100 mM MES pH 6.0 instead of HEPES.

HEK293 cells [6] = assay: Luminescence in sandwich background, HEK293 cells; assay type: cell-based, human; details: non-sandwich versus sandwich
Method: (§4) The PCR library in the Id-OgLuc-HT7 sandwich background was screened for additional variants with increased luminescence compared to 9B8 opt+K33N in sandwich background. Selected variants were then assayed in HEK293 and NIH3T3 cells. […] 1F7 (F) (SEQ ID NOs: 84 and 85) and 15H1 (F) (SEQ ID NOs: 86 and 87) had at least 1.3 fold-increase in luminescence in E. coli. 1F7 (F) was brighter than 9B8 opt+K33N in the sandwich background in HEK293 and NIH3T3 cells.
(§5) The variants 9B8 opt+K33N+T39T+K43R+Y68D (“V2”; SEQ ID NOs: 92 and 93), 9B8 opt+K33N+L27V+K43R+Y68D (SEQ ID NOs: 339 and 340), 9B8 opt+K33N+L27V+T39T+K43R+S66N (SEQ ID NOs: 341 and 342), and 9B8 opt+K33N+L27V+T39T+K43R+Y68D (“L27V”; SEQ ID NOs: 88 and 89) were subcloned into the Id-OgLuc-HT7 sandwich background as described above and assayed in HEK293 and NIH3T3 cells as described above. The luminescence generated by the sandwiched variants were compared to the luminescence generated by the […] sandwich (SEQ ID NOs: 59 and 60) (Table 38). The L27V sandwich (SEQ ID NOs: 90 and 91) and V2 sandwich (SEQ ID NOs: 94 and 95) had at least 1.3× fold-increase in luminescence in HEK293 and NIH3T3 cells.
(§6) The sandwich and non-sandwich versions of the variants V2, 9B8 opt+K33N+L27V+K43R+Y68D, 9B8 opt+K33N+L27V+T39T+K43R+S66N, and L27V were assayed in HEK293 and NIH3T3 cells as described in Example 37. The luminescence generated by the non-sandwiched variants was compared to the luminescence generated by the sandwiched variants (Table 39).

NIH3T3 cells [7] = assay: Luminescence in sandwich background, NIH3T3 cells; assay type: cell-based; details: non-sandwich versus sandwich
Method: as §4, §5, §6

[8] = relative specificity for PBI-3939 compared to native coelenterazine

B1: L27V, K43R, Y68D: 9B8 opt+K33N with L27V, K43R, Y68D (SEQ ID NO: 340) (protein)
chain: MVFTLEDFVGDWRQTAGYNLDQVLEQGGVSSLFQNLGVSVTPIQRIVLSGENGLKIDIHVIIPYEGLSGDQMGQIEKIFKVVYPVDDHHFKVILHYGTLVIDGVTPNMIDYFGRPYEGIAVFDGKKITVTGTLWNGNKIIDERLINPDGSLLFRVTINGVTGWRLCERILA
- fold-increase in relative specificity over 9B8 opt+K33N ([1]; in the three cell types examined): 5 × fold
- Fold over coelenterazine ([1]; luminescence with PBI-3939 divided by luminescence with native coelenterazine, bacterial lysates): 110
- Fold over 9B8 ([1]; luminescence with PBI-3939 normalized to 9B8 opt, bacterial lysates): 1.3
- Fold over Native Coelenterazine, E. coli [1, 8]: 98.3
- luminescence normalized to 9B8 opt, HEK293 (HEK293 cells [2]; PBI-3939): 1.6
- Fold over 9B8 opt + K33N, HEK293 (HEK293 cells [2]; luminescence, PBI-3939): 0.9
- Fold over Native Coelenterazine, HEK293 (HEK293 cells [2]; [8]): 101
- luminescence normalized to 9B8 opt, NIH3T3 (NIH3T3 cells [3]; PBI-3939): 1.5
- Fold over 9B8 opt + K33N, NIH3T3 (NIH3T3 cells [3]; luminescence, PBI-3939): 0.8
- Fold over Native Coelenterazine, NIH3T3 (NIH3T3 cells [3]; [8]): 98
- Km [4]: 13.7 µM
- Vmax [4]: 130,000,000 RLU/0.5 sec
- 1/2 life hours [5]: 23.2 h
- Fold-decrease in luminescence in the presence of sandwich background, HEK 293 (HEK293 cells [6]): 8
- Fold-decrease in luminescence in the presence of sandwich background, NIH 3T3 cells (NIH3T3 cells [7]): 22

— patent US9951373B2, “Oplophorus-derived luciferases, novel coelenterazine substrates, and methods of use” (Promega Corporation, priority 2010, dated 2018)
